Laboratory results published in paper PMC3320615, “β-Microseminoprotein Endows Post Coital Seminal Plasma with Potent Candidacidal Activity by a Calcium- and pH-Dependent Mechanism” (PLoS Pathogens, 2012).

Assays:
[1] = Liposome leakage (carboxyfluorescein release); type: biochemical; details: % ± SD of leakage with Triton X-100, CF fluorescence 520 nm, 37°C, at least triplicate
Method: Subsequently, buffer (10 mM Tris, pH 7.4) was added together with 0.1 M carboxyfluorescein (CF) (Sigma, St Louis, MO). After hydration, the lipid mixture was subjected to eight freeze-thaw cycles consisting of freezing in liquid nitrogen and heating to 60°C. Unilamellar liposomes of about Ø140 nm were generated by multiple extrusions through polycarbonate filters (pore size 100 nm) mounted in a […] (Avestin, Ottawa, Canada) at 22°C. Untrapped CF was then removed by two gel filtrations (Sephadex G-50) at 22°C, with Tris buffer as eluent. CF release was determined by monitoring the emitted fluorescence at 520 nm from liposome dispersions (10 mM lipid in 10 mM Tris). An absolute leakage scale was obtained by disrupting the liposomes at the end of the experiment through addition of 0.8 mM Triton X100 (Sigma, St Louis, MO), causing 100% release and dequenching of CF. Although calcein is frequently used for pH-dependent leakage studies, the high charge of this dye has been noted to influence its leakage behavior in the presence of highly cationic peptides. Instead, therefore, CF was used as a leakage marker at both pH 6.0 and 7.4, avoiding pH-dependent fluorescence effects through neutralization prior to probing the limiting leakage in case of pH 6.0 leakage. Throughout, a SPEX-fluorolog 1650 0.22-m double spectrometer (SPEX Industries, Edison, NJ) was used for the liposome leakage assay. Measurements were performed in at least triplicate at 37°C.

[2] = target: the molecule itself; assay: SEC; HiPrep 16/60 Sephacryl S 100 column; 50 mM Tris, 150 mM NaCl, pH 7.5, with 1 mM calcium or 1 mM EDTA; native MSP
[3] = Size exclusion chromatography (dimerization); type: physicochemical; details: pH 7.5; 50 mM Tris, 150 mM NaCl; 1 mM calcium or 1 mM EDTA; HiPrep 16/60 Sephacryl S 100
From the text: Supplementary file ppat.1002625.s004.tif: Figure S3 Seize exclusion chromatography of MSP. […] (TIF) Click here for additional data file.

C. albicans [4] = assay: Scanning electron microscopy of C. albicans; type: cell-based, Candida albicans; details: 5 h; 20 µM MSP with 40 µM EDTA, or EDTA alone
Method: Specimens were washed with cacodylate buffer, and dehydrated with an ascending ethanol series from 50% (v/v) to absolute ethanol. The specimens were then subjected to critical-point drying in carbon dioxide, with absolute ethanol as intermediate solvent, mounted on aluminum holders, sputtered with 30 nm palladium/gold and examined in a JEOL JSM-350 scanning electron microscope. A small volume from each of the samples was also plated to check antifungal activity.

C. albicans [5] = assay: Antifungal gel overlay assay (AU-PAGE); type: cell-based, Candida albicans
Method: Gel overlay assay was performed essentially as described. Briefly, duplicate samples were run on native Acid Urea (AU-PAGE) gels in 5% (v/v) acetic acid at 100 V for 1 h 20 min. Candida albicans was grown over night, washed and resuspended in 10 mM NaPO4 pH 7.4 and approximately 1×10^5 CFU were added to 12 ml melted underlay agarose (10 mM NaPO4, pH 7.4, 0.03% SAB, 1% agarose type 1 (Sigma, St. Louis, MO)) and poured into a square Petri dish. One AU-gel was stained with Coomassie brilliant blue and one AU gel was washed 3×4 min in 10 mM NaPO4, pH 7.4 and then placed on top of the agarose and incubated for 4 h at 37°C. The AU gel was then removed and an overlay agarose (6% SAB, 1% agarosetype 1 (Sigma)) was poured on top of the underlay and incubated over night at 30°C. To make the clearing zones more visible, the agarose was stained with Coomassie brilliant blue followed by destaining.

[6] = system: S. pyogenes (M5 Manfredo); assay: Antibacterial CFU assay; type: cell-based; details: purified MSP 10 µM + 20 µM EDTA or recombinant dialyzed MSP 10 µM + 10 µM EDTA; neutral pH; data not shown
Method: (§1) E. coli (strain 37.4), S. aureus (strain 5120), S. pyogenes (M5 Manfredo), S. agalactiae (SB1), and E. faecalis (strain 2374) were grown in THY medium (Todd Hewitt with addition of yeast) and on THY agar plates at 37°C with 5% (v/v) CO2. Candida albicans was grown over night, washed, and resuspended in 10 mM Tris, 5 mM glucose, pH 7.4 or pH 4. Approximately 4×10^3 to 10^4 CFU of C. albicans were incubated with the test substance in low or neutral pH buffer for 4 h at 37°C. After incubation, the suspension was diluted and plated. Colonies were counted after two days incubation of the plates at 30°C. Bacteria from overnight cultures were inoculated in fresh medium and grown for 3 h, washed in 10 mM Tris, 5 mM glucose pH 7.4. Approximately 8×10^4 CFU were incubated with sample in 10 mM Tris, 5 mM glucose pH 7.4 or pH 4 for 1 h at 37°C, diluted, plated and incubated over night at 37°C and the colonies counted.

S. agalactiae (SB1) = assay: Antibacterial CFU assay; type: cell-based; details: purified MSP 10 µM + 20 µM EDTA or recombinant dialyzed MSP 10 µM + 10 µM EDTA; neutral pH; data not shown
Method: as §1

S. aureus (strain 5120) = assay: Antibacterial CFU assay; type: cell-based; details: purified MSP 10 µM + 20 µM EDTA or recombinant dialyzed MSP 10 µM + 10 µM EDTA; neutral pH; data not shown
Method: as §1

E. coli (strain 37.4) = assay: Antibacterial CFU assay; type: cell-based; details: purified MSP 10 µM + 20 µM EDTA or recombinant dialyzed MSP 10 µM + 10 µM EDTA; low and neutral pH; data not shown
Method: as §1

[7] = system: E. faecalis (strain 2374); assay: Antibacterial CFU assay; type: cell-based; details: purified MSP 10 µM + 20 µM EDTA or recombinant dialyzed MSP 10 µM + 10 µM EDTA; low and neutral pH; data not shown
Method: as §1

[8] = pH 6.0, +EDTA, DOPC/ergosterol liposomes
[9] = pH 6.0, without EDTA, DOPC/ergosterol liposomes

Molecule: RIFKKEDCKYI [MSP66–76, eleven residues at the very tip of the loop (residue 66–76)]
- Liposome leakage [1, 8]: 41±9%
- Liposome leakage [1, 9]: 31±6%
- Liposome leakage ([1]; pH 7.4, +EDTA): 16±7%
- Liposome leakage ([1]; pH 7.4, without EDTA): 29±6%

B1: β-microseminoprotein (natural protein, human, UniProt P08118 21-114, looked up)
chain: SCYFIPNEGVPGDSTRKCMDLKGNKHPINSEWQTDNCETCTCYETEISCCTLVSTPVGYDKDNCQRIFKKEDCKYIVVEKKDPKKTCSVSEWII
notes: human β-microseminoprotein (MSP, PSP94), native protein purified from seminal plasma; also called MSP; PSP94
- stoichiometry N [2]: 2
- Oligomeric state on size exclusion chromatography [3]: eluted as a dimer
- Effect on C. albicans by scanning electron microscopy (C. albicans [4]): aggregated with disrupted membranes causing cell content leakage
- Liposome leakage [1, 8]: 53±5%
- Liposome leakage [1, 9]: 36±8%
- Liposome leakage ([1]; pH 7.4, +EDTA): 20±6%
- Liposome leakage ([1]; pH 7.4, without EDTA): 20±5%
- Clearing zone in antifungal gel overlay assay (C. albicans [5]): displayed antifungal activity by producing a clearing zone
- Antibacterial activity in CFU assay [6]: no antibacterial activity
- Antibacterial activity in CFU assay (S. agalactiae (SB1)): no antibacterial activity
- Antibacterial activity in CFU assay (S. aureus (strain 5120)): no antibacterial activity
- Antibacterial activity in CFU assay (E. coli (strain 37.4)): no antibacterial activity
- Antibacterial activity in CFU assay [7]: no antibacterial activity
